Reference: patent US20190375846A1 (ULTRAHUMAN ONE, published 2019)

T1: hVCAM-1 (human, UniProt P19320)
T1 construct: purified recombinant protein; Member of the panel m8; the axis also carries a separate label hVCAM-Fc (f6)
T1 sequence (looked up): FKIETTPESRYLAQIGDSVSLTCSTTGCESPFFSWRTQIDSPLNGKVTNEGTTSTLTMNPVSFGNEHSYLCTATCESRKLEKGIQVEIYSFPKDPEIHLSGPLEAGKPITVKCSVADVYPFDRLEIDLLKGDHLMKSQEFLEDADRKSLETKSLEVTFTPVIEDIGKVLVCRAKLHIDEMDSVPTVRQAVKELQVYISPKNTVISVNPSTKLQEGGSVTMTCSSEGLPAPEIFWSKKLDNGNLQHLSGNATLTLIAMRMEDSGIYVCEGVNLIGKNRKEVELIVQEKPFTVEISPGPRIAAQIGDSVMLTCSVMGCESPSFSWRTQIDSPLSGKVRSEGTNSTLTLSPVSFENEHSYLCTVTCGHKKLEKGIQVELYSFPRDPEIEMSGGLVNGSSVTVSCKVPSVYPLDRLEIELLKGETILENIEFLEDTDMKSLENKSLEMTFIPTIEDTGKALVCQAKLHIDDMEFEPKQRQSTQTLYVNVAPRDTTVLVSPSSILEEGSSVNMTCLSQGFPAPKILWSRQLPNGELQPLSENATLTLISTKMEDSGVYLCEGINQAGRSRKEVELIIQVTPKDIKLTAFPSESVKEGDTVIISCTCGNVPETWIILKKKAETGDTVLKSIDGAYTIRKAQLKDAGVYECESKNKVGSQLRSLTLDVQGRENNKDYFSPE

T2: hEpCAM-Fc (human, UniProt P16422)
T2 construct: recombinant Fc fusion; Member of the panel m8
T2 sequence (fusion chain, looked up): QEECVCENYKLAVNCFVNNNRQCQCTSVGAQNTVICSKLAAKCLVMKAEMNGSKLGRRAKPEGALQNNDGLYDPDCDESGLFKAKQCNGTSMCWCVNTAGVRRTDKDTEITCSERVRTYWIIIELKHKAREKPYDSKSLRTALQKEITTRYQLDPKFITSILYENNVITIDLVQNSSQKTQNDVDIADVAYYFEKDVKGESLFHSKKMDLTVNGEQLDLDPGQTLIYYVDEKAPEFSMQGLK

T3: human GITR at the cell surface (human, UniProt Q9Y5U5 26-241)
T3 sequence (looked up): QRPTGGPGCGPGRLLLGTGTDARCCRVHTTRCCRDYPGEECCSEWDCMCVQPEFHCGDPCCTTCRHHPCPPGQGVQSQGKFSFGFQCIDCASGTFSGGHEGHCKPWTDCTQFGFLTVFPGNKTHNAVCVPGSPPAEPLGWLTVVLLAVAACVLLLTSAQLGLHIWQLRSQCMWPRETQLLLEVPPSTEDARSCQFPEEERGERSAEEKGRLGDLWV


How the values were obtained:
hVCAM-1 = molecular target: T1, hVCAM-1; experiment: direct ELISA on coated protein, IgG at 10 µg/ml, OD 450 nm
Protocol: (§1) Off-target homologue binding risk for mVH/mVL (FIG. 8A), VH3/VL2 (FIG. 8B) and lead engineered IgG clones G-G10 (FIG. 8C), I-C2 (FIG. 8D) and D-A6 (FIG. 8E) was examined by direct ELISA on GITR-Fc orthologs and a panel of 13 human TNFRSF and immunoglobulin superfamily proteins (as labelled on each X-axis). Binding to human, cyno and murine GITR-Fcs (h/c/mGITR-Fc) was performed at an IgG concentration of 1 μg/ml. Binding to all other proteins was performed at an IgG concentration of 10 μg/ml.
(§2) Anti-GITR antibodies were tested for polyreactivity by ELISA. Purified, recombinant, target and non-target antigens were coated in 96-well Nunc maxisorp plates at 100 ng per well in carbonate buffer, at 4° C. overnight. Plates were then washed 3× with PBS, blocked with 1% BSA in PBS, then washed 3× with PBS-Tween20. A dilution series of primary antibodies was then applied, plates were washed 3× with PBS-Tween20 followed by application of goat anti-human kappa chain-HRP 1:4,000 secondary antibody. Wells were then washed 3× with PBS-Tween20 and 2× with PBS, 100 μl TMB peroxidase substrate was added per well, the was reaction stopped by adding 100 μl 2M H₂SO₄ and absorbances were read at 450 nm. Anti-GITR antibodies were also tested for binding specificity by flow cytometry. HuT78 cells were activated by incubation with anti-CD3/anti-CD28 beads for 3 days. Naïve cells were incubated in media alone. At the end of the incubation the cells were harvested and the beads removed from the activated cells using a magnet. Cells were incubated with viability dye and then stained with anti-GITR antibodies at 4° C. […] Binding of VH1/VI1 and D-A6 IgG1 proteins were detected by subsequent incubation with a PE labelled goat anti-human IgG. Cells were fixed with 4% PFA before being stored in PBS at 4° C. overnight. Cells were analysed the next day using a BD Fortessa flow cytometer running Diva software. Analysis was performed using FlowJo software.

hEpCAM-Fc = molecular target: T2, hEpCAM-Fc; experiment: as above
Protocol: as §1, §2

h4-1BB-Fc = molecular target: T4, h4-1BB-Fc; experiment: as above
T4 construct: Member of the panel m8; not shown: Fc part and any linker
Protocol: as §1, §2

hBAFFR-Fc = molecular target: T5, hBAFFR-Fc (human, UniProt Q96RJ3); experiment: as above
T5 construct: recombinant Fc fusion; Member of the panel m8
Protocol: as §1, §2

[1] = molecular target: T3, human GITR at the cell surface; experiment: cell-based or functional assay
[2] = molecular target: cynomolgus monkey GITR at the cell surface (cynomolgus monkey); experiment: cell-based or functional assay

T5 sequence (Q96RJ3 7-71 limits assumed): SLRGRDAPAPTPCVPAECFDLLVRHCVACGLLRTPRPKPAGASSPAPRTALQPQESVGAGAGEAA
T4 sequence (chain, as listed by the source limits assumed): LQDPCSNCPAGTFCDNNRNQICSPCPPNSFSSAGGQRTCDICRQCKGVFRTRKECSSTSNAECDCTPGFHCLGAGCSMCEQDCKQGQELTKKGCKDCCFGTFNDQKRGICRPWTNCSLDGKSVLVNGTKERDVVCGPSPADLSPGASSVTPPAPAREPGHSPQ

| Binder | binding result (hVCAM-1) | binding result (hEpCAM-Fc) | binding result (h4-1BB-Fc) | binding result (hBAFFR-Fc) | EC50 of FcγRIIIa activation, Promega ADCC reporter assay, CHO-K1 target cells expressing human GITR [1] | potency against VH1/VL1 IgG1, ADCC reporter assay on human GITR CHO-K1 cells [1] | EC50 of FcγRIIIa activation, Promega ADCC reporter assay, CHO-K1 target cells expressing cyno GITR [2] | potency against VH1/VL1 IgG1, ADCC reporter assay on cyno GITR CHO-K1 cells [2] |
| --- | --- | --- | --- | --- | --- | --- | --- | --- |
| chimeric anti-GITR IgG1 mVH/mVL (6C8 murine v-domains) (antibody, V domains shown, Full-length human IgG1, kappa; also called GITR-mVH/mVL; chimeric IgG) VH: QVTLKESGPGILKPSQTLSLTCSFSGFSLSTSGMGVGWIRQPSGKGLEWLAHIWWDDDKYYNPSLKSQLTISKDTSRNQVFLKITSVDTADAATYYCARTRRYFPFAYWGQGTLVTVSS VL: DIVMTQSQKFMSTSVGDRVSVTCKASQNVGTNVAWYQQKPGQSPKALIYSASYRYSGVPDRFTGSGSGTDFTLTINNVHSEDLAEYFCQQYNTDPLTFGAGTKLEIK | no binding (tested: 10 µg/ml) | no binding (tested: 10 µg/ml) | no binding (tested: 10 µg/ml) | no binding (tested: 10 µg/ml) |  |  |  |  |
| D-A6 IgG1 (antibody, V domains shown, Human IgG1) VH: EVQLVESGGGLVQPGGSLRLSCAASGFSLSTSGYGVGWVRQAPGKGLEWLAHIWWDDDKYYVDSVKGRFTISRDNAKNSLYLQMNSLRAEDTAVYYCARTRQYFPFAYWGQGTLVTVSS VL: EIVLTQSPATLSLSPGERATLSCRASQSVGSNLAWYQQKPGQAPRLLIYSASYRYTGIPARFSGSGSGTDFTLTISSLEPEDFAVYYCQQYSTDPLTFGGGTKVEIK | no binding (tested: 10 µg/ml) | no binding (tested: 10 µg/ml) | no binding (tested: 10 µg/ml) | no binding (tested: 10 µg/ml) | 15.4 nM | 2 fold | 57.9 nM | 2 fold |
| I-C2 IgG1 (antibody, V domains shown, Human IgG1) VH: EVQLVESGGGLVQPGGSLRLSCAASGFSLSTSGYGVGWVRQAPGKGLEWLAHIWWDDDKYYVDSVKGRFTISRDNAKNSLYLQMNSLRAEDTAVYYCARTRLYFPFAYWGQGTLVTVSS VL: EIVLTQSPATLSLSPGERATLSCRASQNVGSNLAWYQQKPGQAPRLLIYSASNRYSGIPARFSGSGSGTDFTLTISSLEPEDFAVYYCQQYSTDPLTFGGGTKVEIK | no binding (tested: 10 µg/ml) | no binding (tested: 10 µg/ml) | no binding (tested: 10 µg/ml) | no binding (tested: 10 µg/ml) |  |  |  |  |
| VH3/VL2 IgG1 (antibody, V domains shown, Human IgG1; template of the mutagenesis library; also called G-VH3/VL2; VH3 family) VH: EVQLVESGGGLVQPGGSLRLSCAASGFSLSTSGMGVGWVRQAPGKGLEWLAHIWWDDDKYYVDSVKGRFTISRDNAKNSLYLQMNSLRAEDTAVYYCARTRRYFPFAYWGQGTLVTVSS VL: EIVLTQSPATLSLSPGERATLSCRASQNVGTNVAWYQQKPGQAPRLLIYSASYRYSGIPARFSGSGSGTDFTLTISSLEPEDFAVYYCQQYNTDPLTFGGGTKVEIK | no binding (tested: 10 µg/ml) | no binding (tested: 10 µg/ml) | no binding (tested: 10 µg/ml) | no binding (tested: 10 µg/ml) |  |  |  |  |
| G-G10 IgG1 (antibody, V domains shown, Human IgG1) VH: EVQLVESGGGLVQPGGSLRLSCAASGFSLSTFGYGVGWVRQAPGKGLEWLAHIWWDDDKYYVDSVKGRFTISRDNAKNSLYLQMNSLRAEDTAVYYCARTRQYFPFAYWGQGTLVTVSS VL: EIVLTQSPATLSLSPGERATLSCRASQSVGTNLAWYQQKPGQAPRLLIYYASYRYTGIPARFSGSGSGTDFTLTISSLEPEDFAVYYCQQYSNDPLTFGGGTKVEIK | no binding (tested: 10 µg/ml) | no binding (tested: 10 µg/ml) | no binding (tested: 10 µg/ml) | no binding (tested: 10 µg/ml) |  |  |  |  |
